Measurements from PMC6709600 (Nature, 2019).

What was measured:
cryo-EM structure = target: the molecule itself; assay: cryo-EM structure
crystal structure = target: the molecule itself; assay: crystal structure

| Protein | binding result (cryo-EM structure) | binding result (crystal structure) |
| --- | --- | --- |
| full-length mGlu5, HA-FLAG-human mGlu5 (21-865) with a C-terminal hexahistidine tag (receptor) QSSERRVVAHMPGDIIIGALFSVHHQPTVDKVHERKCGAVREQYGIQRVEAMLHTLERINSDPTLLPNITLGCEIRDSCWHSAVALEQSIEFIRDSLISSEEEEGLVRCVDGSSSSFRSKKPIVGVIGPGSSSVAIQVQNLLQLFNIPQIAYSATSMDLSDKTLFKYFMRVVPSDAQQARAMVDIVKRYNWTYVSAVHTEGNYGESGMEAFKDMSAKEGICIAHSYKIYSNAGEQSFDKLLKKLTSHLPKARVVACFCEGMTVRGLLMAMRRLGLAGEFLLLGSDGWADRYDVTDGYQREAVGGITIKLQSPDVKWFDDYYLKLRPETNHRNPWFQEFWQHRFQCRLEGFPQENSKYNKTCNSSLTLKTHHVQDSKMGFVINAIYSMAYGLHNMQMSLCPGYAGLCDAMKPIDGRKLLESLMKTNFTGVSGDTILFDENGDSPGRYEIMNFKEMGKDYFDYINVGSWDNGELKMDDDEVWSKKSNIIRSVCSEPCEKGQIKVIRKGEVSCCWTCTPCKENEYVFDEYTCKACQLGSWPTDDLTGCDLIPVQYLRWGDPEPIAAVVFACLGLLATLFVTVVFIIYRDTPVVKSSSRELCYIILAGICLGYLCTFCLIAKPKQIYCYLQRIGIGLSPAMSYSALVTKTNRIARILAGSKKKICTKKPRFMSACAQLVIAFILICIQLGIIVALFIMEPPDIMHDYPSIREVYLICNTTNLGVVTPLGYNGLLILSCTFYAFKTRNVPANFNEAKYIAFTMYTTCIIWLAFVPIYFGSNYKIITMCFSVSLSATVALGCMFVPKVYIILAKPERNVRSAFTTSTVVRMHVGDGKSSSAASRSSSLVNL | binds |  |
| mGlu5 ECD (residues 21-569 of wild-type human metabotropic glutamate receptor subtype 5) (domain or fragment) QSSERRVVAHMPGDIIIGALFSVHHQPTVDKVHERKCGAVREQYGIQRVEAMLHTLERINSDPTLLPNITLGCEIRDSCWHSAVALEQSIEFIRDSLISSEEEEGLVRCVDGSSSSFRSKKPIVGVIGPGSSSVAIQVQNLLQLFNIPQIAYSATSMDLSDKTLFKYFMRVVPSDAQQARAMVDIVKRYNWTYVSAVHTEGNYGESGMEAFKDMSAKEGICIAHSYKIYSNAGEQSFDKLLKKLTSHLPKARVVACFCEGMTVRGLLMAMRRLGLAGEFLLLGSDGWADRYDVTDGYQREAVGGITIKLQSPDVKWFDDYYLKLRPETNHRNPWFQEFWQHRFQCRLEGFPQENSKYNKTCNSSLTLKTHHVQDSKMGFVINAIYSMAYGLHNMQMSLCPGYAGLCDAMKPIDGRKLLESLMKTNFTGVSGDTILFDENGDSPGRYEIMNFKEMGKDYFDYINVGSWDNGELKMDDDEVWSKKSNIIRSVCSEPCEKGQIKVIRKGEVSCCWTCTPCKENEYVFDEYTCKACQLGSWPTDDLTGCDLIP |  | binds |
